# From the RNAGym collection of RNA variant scans (doi:10.1093/nar/gkz1192)
# B1: CPEB3 Ribozyme (parent)
# chain: UAACAGGGGGCCACAGCAGAAGCGUUCACGUCGCAGCCCCUGUCAGAUUCUGGUGAAUCUGCGAAUUCUGCUGUAUAUCUC
# Variants of: B1
# Experiment: self-cleavage, relative activity (ratio to wild type); higher = more cleavage; in vitro, sequencing
# Method in brief: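 Libraries of CPEB3 self-cleaving ribozyme mutants came from rounds of error-prone PCR and carried barcodes, which DNA sequencing matched to variants. In vitro transcription used T7 RNA polymerase at 37°C for 5 hours, with a further 15 min in DNase I before EDTA stopped the reaction; the ribozymes cleaved during both steps. The RNA was reverse transcribed with template switching and sequenced on Illumina. Relative activity is the cleaved/total read fraction of a variant divided by that of the unmutated ribozyme, averaged over three batches with at least 5 reads.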
row,Variant,self-cleavage
1,UAACAGGGGGCCACAGCAGAAGCGUUCACGUCACAGCCCCUGUCAGAUUCUGGUGAAUCUGCGAAUUCUGCUGUUUAUCUC,0.11
2,UAACAGGGGGCCACAGCAGAAGCGUUCACGUUGCAGCCCCUGUCAGAUUCUCGUGAAUCUGCGAAUUCUGCUGUAUAUCUC,0.2
3,UAACAGGGGGCCACAGCAGAAGCGUUCACGUUGCAGCCCCUGUCAGAUUCUGAUGAAUCUGCGAAUUCUGCUGUAUAUCUC,0.27
4,UAACAGGGGGCCACAGCAGAAGCGUUCACGUCACAGCCCCUGUCAGAUUCUGGUGAAUCUGCGAAUUCUGCUGUAUAUCUC,0.28
5,UAACAGGGGGCCACAGCAGAAGCGUUCACGUCACAGCCCCUGUCAGAUUCUGGUGAAUUUGCGAAUUCUGCUGUAUAUCUC,0.24
6,UAACAGGGGGCCACAGCAGAAGCGUUCACGUCACAGCCCCUGUCAGAUUGUGGUGAAUCUGCGAAUUCUGCUGUAUAUCUC,0.22
7,UAACAGGGGGCCACAGCAGAAGCGUUCACGUCACAGCCCCUGUCAGAUUUUGGUGAAUCUGCGAAUUCUGCUGUAUAUCUC,0.1
8,UAACAGGGGGCCACAGCAGAAGCGUUCACGUUGCAGCCCCAGUCAGAUUCUGGUGAAUCUGCGAAUUCUGCUGUAUAUCUC,0.27
9,UAACAGGGGGCCACAGCAGAAGCGUUCACGUUGCAGCCCCCGUCAGAUUCUGGUGAAUCUGCGAAUUCUGCUGUAUAUCUC,0.26
10,UAACAGGGGGCCACAGCAGAAGCGUUCACGUUGCAGCCCCUGUCAGAUCCUGGUGAAUCUGCGAAUUCUGCUGUAUAUCUC,0.21
11,UAACAGGGGGCCACAGCAGAAGCGUUCACGUUGCAGCCCCUGUCAGAUACUGGUGAAUCUGCGAAUUCUGCUGUAUAUCUC,0.15
12,UAACAGGGGGCCACAGCAGAAGCGUUCACGUUGCAGCCCCUGUCAGAUUCUGGUGAAUCUCCGAAUUCUGCUGUAUAUCUC,0.18
13,UAACAGGGGGCCACAGCAGAAGCGUUCACGUCACAGCCCCUGUCAGAUUCUGGUGGAUCUGCGAAUUCUGCUGUAUAUCUC,0.28
14,UAACAGGGGGCCACAGCAGAAGCGUUCACGUCACAGCCCCUGUCAGAUUCUGGUGUAUCUGCGAAUUCUGCUGUAUAUCUC,0.18
15,UAACAGGGGGCCACAGCAGAAGCGUUCACGUCACAGCCCUUGUCAGAUUCUGGUGAAUCUGCGAAUUCUGCUGUAUAUCUC,0.38
16,UAACAGGGGGCCACAGCAGAAGCGUUCACGUCACAGCCCGUGUCAGAUUCUGGUGAAUCUGCGAAUUCUGCUGUAUAUCUC,0.2
17,UAACAGGGGGCCACAGCAGAAGCGUUCACGUCACAGCCCAUGUCAGAUUCUGGUGAAUCUGCGAAUUCUGCUGUAUAUCUC,0.19

row,Variant,self-cleavage
1,UAACAGGGGGCCACAGCAGAAGCGUUCACGUUGCAGCCCCUGUCAGAUUCUGGUGAAUCUGCGAAUUCUGCUGUACAUCUC,0.2
2,UAACAGGGGGCCACAGCAGAAGCGUUCACGUUGCAGCCCCUGUCAGAUUCUGGUGAAUCUGCGAAUUCUGCUGUAAAUCUC,0.18
3,UAACAGGGGGCCACAGCAGAAGCGUUCACGUUGCAGCCCCUGACAGAUUCUGGUGAAUCUGCGAAUUCUGCUGUAUAUCUC,0.43
4,UAACAGGGGGCCACAGCAGAAGCGUUCACGUUGCAGCCCCUGCCAGAUUCUGGUGAAUCUGCGAAUUCUGCUGUAUAUCUC,0.25
5,UAACAGGGGGCCACAGCAGAAGCGUUCACGUCACAGCCUCUGUCAGAUUCUGGUGAAUCUGCGAAUUCUGCUGUAUAUCUC,0.16
6,UAACAGGGGGCCACAGCAGAAGCGUUCACGUCACAGCCCCUGUCCGAUUCUGGUGAAUCUGCGAAUUCUGCUGUAUAUCUC,0.22
7,UAACAGGGGGCCACAGCAGAAGCGUUCACGUCACAGCCCCUGUCUGAUUCUGGUGAAUCUGCGAAUUCUGCUGUAUAUCUC,0.39
8,UAACAGGGGGCCACAGCAGAAGCGUUCACGUCACAGCCCCUGUCGGAUUCUGGUGAAUCUGCGAAUUCUGCUGUAUAUCUC,0.24
9,UAACAGGGGGCCACAGCAGAAGCGUUCACGUUGCAGCCCCUGUCAGAUUCCGGUGAAUCUGCGAAUUCUGCUGUAUAUCUC,0.16
10,UAACAGGGGGCCACAGCAGAAGCGUUCACGUUGCAGCCCCUGUCAGAUUCAGGUGAAUCUGCGAAUUCUGCUGUAUAUCUC,0.19
11,UAACAGGGGGCCACAGCAGAAGCGUUCACGUUGCAGCCCCUGUCAGAUUCGGGUGAAUCUGCGAAUUCUGCUGUAUAUCUC,0.22
12,UAACAGGGGGCCACAGCAGAAGCGUUCACGUUGCAGCCCCUGUCAGAUUCUGGUGAAUCUGCGAAUUCUGCAGUAUAUCUC,0.11
13,UAACAGGGGGCCACAGCAGAAGCGUUCACGUUGCAGCCCCUGUCAGAUUCUGGUGAAUCUGCGAAUUCUGCCGUAUAUCUC,0.4
14,UAACAGGGGGCCACAGCAGAAGCGUUCACGUUGCAGCCCCUGUCAGAUUCUGGUGAAUCUGCGAAAUCUGCUGUAUAUCUC,0.22
15,UAACAGGGGGCCACAGCAGAAGCGUUCACGUUGCAGCCCCUGUCAGAUUCUGGUGAAUCUGCGAACUCUGCUGUAUAUCUC,0.22
16,UAACAGGGGGCCACAGCAGAAGCGUUCACGUCACAGCCCCUGUCAGAUUCUGGUGACUCUGCGAAUUCUGCUGUAUAUCUC,0.11
17,UAACAGGGGGCCACAGCAGAAGCGUUCACGUCACAGCCCCUGUCAGAUUCUGGUGAGUCUGCGAAUUCUGCUGUAUAUCUC,0.25
